Data from paper PMC5815190.

Target: human toll-like receptor 5 (hTLR5) on HEK-Blue-hTLR5 cells (human) (UniProt O60602)
UniProt O60602, sequence (O60602 21-858): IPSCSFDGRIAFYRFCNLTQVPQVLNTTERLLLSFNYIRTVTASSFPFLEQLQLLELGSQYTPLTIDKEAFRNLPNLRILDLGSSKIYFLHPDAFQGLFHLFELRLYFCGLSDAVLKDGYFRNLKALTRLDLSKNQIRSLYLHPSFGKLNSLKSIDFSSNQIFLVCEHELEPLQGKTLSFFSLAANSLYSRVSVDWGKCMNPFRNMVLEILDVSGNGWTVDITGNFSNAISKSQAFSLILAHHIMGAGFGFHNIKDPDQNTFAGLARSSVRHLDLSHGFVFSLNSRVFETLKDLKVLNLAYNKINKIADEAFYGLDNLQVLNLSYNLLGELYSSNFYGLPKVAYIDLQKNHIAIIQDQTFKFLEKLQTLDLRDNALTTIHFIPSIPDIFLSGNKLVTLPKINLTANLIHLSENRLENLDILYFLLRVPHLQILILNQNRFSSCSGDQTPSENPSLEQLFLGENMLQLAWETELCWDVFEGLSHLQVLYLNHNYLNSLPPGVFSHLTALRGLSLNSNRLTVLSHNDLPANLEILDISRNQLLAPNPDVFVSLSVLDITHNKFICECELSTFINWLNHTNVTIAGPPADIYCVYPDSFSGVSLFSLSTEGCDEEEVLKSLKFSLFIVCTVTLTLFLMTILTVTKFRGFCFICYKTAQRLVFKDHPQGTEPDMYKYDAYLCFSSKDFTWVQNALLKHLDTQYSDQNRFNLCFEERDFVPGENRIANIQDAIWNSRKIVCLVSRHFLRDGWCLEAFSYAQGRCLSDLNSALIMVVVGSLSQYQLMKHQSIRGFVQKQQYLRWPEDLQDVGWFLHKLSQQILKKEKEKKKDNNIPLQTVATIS

Substance: Lawsonia intracellularis putative flagellin LI0570 (LFliC) (natural protein)
- IL-8 mRNA level (RT-PCR, 2^-ddCt) in HEK-Blue-hTLR5 cells treated with 10 and 100 ng/mL LFliC for 24 h: 590 fold
